# Results taken from patent US20230192896A1 (BIOVERATIV THERAPEUTICS, published 2023).
# B1: BIIB-9-1282 (antibody, V domains shown)
# VH: QVQLVQSGAEVKKPGASVKVSCKASGYTFTSYYMVWVRQAPGQGLEWMGIINPSGGSTSYAQKFQGRVTMTRDTSTSTVYMELSSLRSEDTAVYYCARVPTYRYSYLAFDIWGQGTMVTVSS
# VL: EIVMTQSPATLSVSPGERATLSCRASQSVSSNLAWYQQKPGQAPRLLIYGASTRATGIPARFSGSGSGTEFTLTISSLQSEDFAVYYCQQHNHLPITFGGGTKVEIK
# notes: IgG
# B2: BIIB-9-1285 (antibody, V domains shown)
# VH: QVQLVQSGAEVKKPGASVKVSCKASGYTFTSYYMVWVRQAPGQGLEWMGIINPSGGSTSYAQKFQGRVTMTRDTSTSTVYMELSSLRSEDTAVYYCARVPTYRYSYLAFDIWGQGTMVTVSS
# VL: EIVMTQSPATLSVSPGERATLSCRASQSVSSNLAWYQQKPGQAPRLLIYGASTRATGIPARFSGSGSGTEFTLTISSLQSEDFAVYYCQQASNFPPTFGGGTKVEIK
# notes: IgG
# B3: BIIB-9-1278 (antibody, V domains shown)
# VH: QVQLVQSGAEVKKPGASVKVSCKASGYTFTSYYMVWVRQAPGQGLEWMGIINPSGGSTSYAQKFQGRVTMTRDTSTSTVYMELSSLRSEDTAVYYCARGPGELGYYLAFDIWGQGTMVTVSS
# VL: EIVMTQSPATLSVSPGERATLSCRASQSVSSNLAWYQQKPGQAPRLLIYGASTRATGIPARFSGSGSGTEFTLTISSLQSEDFAVYYCQQHANFPPTFGGGTKVEIK
# notes: IgG
# B4: BIIB-9-1284 (antibody, V domains shown)
# VH: QVQLVQSGAEVKKPGASVKVSCKASGYTFTSYYMVWVRQAPGQGLEWMGIINPSGGSTSYAQKFQGRVTMTRDTSTSTVYMELSSLRSEDTAVYYCARVPTYRYSYLAFDIWGQGTMVTVSS
# VL: EIVLTQSPATLSVSPGERATLSCRASQSVGSNLAWYQQKPGQAPRLLIYGASTRATGIPARFSGSGSGTEFTLTISSLQSEDFAVYYCQQHNHLPITFGGGTKVEIK
# notes: IgG
# B5: BIIB-9-3595 (antibody, V domains shown)
# VH: EVQLVESGGGLVKPGGSLRLSCAASGFTFSSYSMNWVRQAPGKGLEWVSSISSSSSYIYYADSVKGRFTISRDNAKNSLYLQMNSLRAEDTAVYYCARDLGGYAGYYGMDVWGQGTTVTVSS
# VL: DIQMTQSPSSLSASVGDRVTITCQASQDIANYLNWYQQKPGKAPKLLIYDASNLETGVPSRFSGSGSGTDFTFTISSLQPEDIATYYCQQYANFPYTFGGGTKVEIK
# B6: BIIB-9-3617 (antibody, V domains shown)
# VH: EVQLVESGGGLVKPGGSLRLSCAASGFTFSSYSMTWVRQAPGKGLEWVSSISSSGTYIYYADSVKGRFTISRDNAKNSLYLQMNSLRAEDTAVYYCARDVGGYAGYYGMDVWGQGTTVTVSS
# VL: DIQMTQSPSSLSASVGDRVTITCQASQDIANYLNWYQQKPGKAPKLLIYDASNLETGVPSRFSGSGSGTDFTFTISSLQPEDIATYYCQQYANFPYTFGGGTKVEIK
# B7: BIIB-9-3766 (antibody, V domains shown)
# VH: EVQLVESGGGLVKPGGSLRLSCAASGFTFGSYDMNWVRQAPGKGLEWVSSISSGESYIYYAESVKGRFTISRDNAKNSLYLQMNSLRAEDTAVYYCARDVGGYAGYYGMDVWGQGTTVTVSS
# VL: DIQMTQSPSSLSASVGDRVTITCEASEDISNYLNWYQQKPGKAPKLLIYDASNLQYGVPSRFSGSGSGTDFTFTISSLQPEDIATYYCSQYANFPYTFGGGTKVEIK
# B8: BIIB-9-3754 (antibody, V domains shown)
# VH: EVQLVESGGGLVKPGGSLRLSCAASGFTFGSYDMNWVRQAPGKGLEWVSSISSGESYIYYAESVKGRFTISRDNAKNSLYLQMNSLRAEDTAVYYCARDVGGYAGFYGMDVWGQGTTVTVSS
# VL: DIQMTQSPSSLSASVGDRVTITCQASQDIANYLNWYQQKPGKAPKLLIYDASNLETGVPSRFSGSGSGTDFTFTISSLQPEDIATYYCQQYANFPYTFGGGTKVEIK
# B9: BIIB-9-3647 (antibody, V domains shown)
# VH: EVQLVESGGGLVKPGGSLRLSCAASGFTFSSYGMVWVRQAPGKGLEWVSSISSASSYIYYADSVKGRFTISRDNAKNSLYLQMNSLRAEDTAVYYCARDVGGYAGYYGMDVWGQGTTVTVSS
# VL: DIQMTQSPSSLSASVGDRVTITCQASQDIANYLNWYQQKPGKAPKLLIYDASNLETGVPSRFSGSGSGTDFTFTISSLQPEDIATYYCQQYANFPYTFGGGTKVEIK
# B10: BIIB-9-3604 (antibody, V domains shown)
# VH: EVQLVESGGGLVKPGGSLRLSCAASGFTFSSYDMVWVRQAPGKGLEWVSSISSGDSYIYYADSVKGRFTISRDNAKNSLYLQMNSLRAEDTAVYYCARDVGGYAGYYGMDVWGQGTTVTVSS
# VL: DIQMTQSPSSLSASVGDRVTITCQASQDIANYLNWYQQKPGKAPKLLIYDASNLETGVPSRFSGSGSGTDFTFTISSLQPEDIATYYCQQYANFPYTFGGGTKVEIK
# B11: BIIB-9-3618 (antibody, V domains shown)
# VH: EVQLVESGGGLVKPGGSMRLSCAASGFTFSSYEMVWVRQAPGKGLEWVSYISSGSSYIYYADSVKGRFTISRDNAKNSLYLQMNSLRAEDTAVYYCARDVGGYAGYYGMDVWGQGTTVTVSS
# VL: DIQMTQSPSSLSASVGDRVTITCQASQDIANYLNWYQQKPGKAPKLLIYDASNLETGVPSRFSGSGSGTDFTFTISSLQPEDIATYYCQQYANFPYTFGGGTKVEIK
# B12: BIIB-9-3756 (antibody, V domains shown)
# VH: EVQLVESGGGLVKPGGSLRLSCAASGFTFGSYDMNWVRQAPGKGLEWVSSISSGESYIYYAESVKGRFTISRDNAKNSLYLQMNSLRAEDTAVYYCVRDVGGYAGYYGMDVWGQGTTVTVSS
# VL: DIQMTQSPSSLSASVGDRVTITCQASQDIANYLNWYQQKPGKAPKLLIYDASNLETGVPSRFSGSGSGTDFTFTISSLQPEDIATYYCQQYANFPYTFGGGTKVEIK
# B13: BIIB-9-3601 (antibody, V domains shown)
# VH: EVQLVESGGGLVKPGGSLRLSCAASGFTFSSFSMNWVRQAPGKGLEWVSSISSAGSYIYYADSVKGRFTISRDNAKNSLYLQMNSLRAEDTAVYYCARDVGGYAGYYGMDVWGQGTTVTVSS
# VL: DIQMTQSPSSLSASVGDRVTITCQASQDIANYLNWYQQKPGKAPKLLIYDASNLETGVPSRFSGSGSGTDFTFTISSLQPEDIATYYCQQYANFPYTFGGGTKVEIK
# B14: BIIB-9-3650 (antibody, V domains shown)
# VH: EVQLVESGGGLVQPGGSLRLSCAASGFTFGSYEMNWVRQAPGKGLEWVSAISASSSTIYYADSVKGRFTISRDNAKNSLYLQMNSLRAEDTAVYYCARDVGGYAGYYGMDVWGQGTTVTVSS
# VL: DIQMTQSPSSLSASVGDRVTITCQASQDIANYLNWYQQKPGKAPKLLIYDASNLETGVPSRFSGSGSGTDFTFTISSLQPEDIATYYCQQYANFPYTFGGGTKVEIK
# B15: BIIB-9-3649 (antibody, V domains shown)
# VH: EVQLVESGGGLVKPGGSLRLSCAASGFTFSSYGMAWVRQAPGKGLEWVSGISSSSSYIYYADSVKGRFTISRDNAKNSLYLQMNSLRAEDTAVYYCARDVGGYAGYYGMDVWGQGTTVTVSS
# VL: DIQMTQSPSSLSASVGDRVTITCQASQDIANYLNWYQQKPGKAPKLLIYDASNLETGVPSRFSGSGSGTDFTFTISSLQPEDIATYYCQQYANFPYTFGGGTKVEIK
# B16: BIIB-9-3654 (antibody, V domains shown)
# VH: EVQLVESGGGLVKPGGSLRLSCAASGFTFESYSMNWVRQAPGKGLEWVSGISSASSYIYYADSVKGRFTISRDNAKNSLYLQMNSLRAEDTAVYYCARDVGGYAGYYGMDVWGQGTTVTVSS
# VL: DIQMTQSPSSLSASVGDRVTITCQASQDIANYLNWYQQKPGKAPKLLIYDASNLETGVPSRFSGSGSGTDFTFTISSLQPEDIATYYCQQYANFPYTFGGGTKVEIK
# B17: BIIB-9-3753 (antibody, V domains shown)
# VH: EVQLVESGGGLVKPGGSLRLSCAASGFTFGSYDMNWVRQAPGKGLEWVSSISDSASYIAYADSVKGRFTISRDNAKNSLYLQMNSLRAEDTAVYYCARDVSGYAGYYGMDVWGQGTTVTVSS
# VL: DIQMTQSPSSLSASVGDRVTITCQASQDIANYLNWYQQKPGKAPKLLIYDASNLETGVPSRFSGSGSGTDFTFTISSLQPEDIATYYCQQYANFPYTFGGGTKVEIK
# B18: BIIB-9-3621 (antibody, V domains shown)
# VH: EVQLVESGGGLVKPGGSLRLSCAASGFTFGSYSMAWVRQAPGKGLEWVSGISSSSGYIYYADSVKGRFTISRDNAKNSLYLQMNSLRAEDTAVYYCARDVGGYAGYYGMDVWGQGTTVTVSS
# VL: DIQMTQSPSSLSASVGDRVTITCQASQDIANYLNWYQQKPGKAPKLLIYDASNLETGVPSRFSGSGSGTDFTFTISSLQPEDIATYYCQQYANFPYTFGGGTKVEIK
# B19: BIIB-9-1277 (antibody, V domains shown)
# VH: QVQLVQSGAEVKKPGASVKVSCKASGYTFTSYYMHWVRQAPGQGLEWMGIINPSGGSTSYAQKFQGRVTMTRDTSTSTVYMELSSLRSEDTAVYYCARGGTGYYYGSGSRDGYHYYYGMDVWGQGTTVTVSS
# VL: EIVMTQSPATLSVSPGERATLSCRASQSVSSYLAWYQQKPGQAPRLLIYDASNRATGIPARFSGSGSGTDFTLTISSLEPEDLAVYYCQQSANWPPTFGGGTKVEIK
# notes: IgG
# B20: BIIB-9-1274 (antibody, V domains shown)
# VH: QVQLVQSGAEVKKPGASVKVSCKASGYTFTSYYMHWVRQAPGQGLEWMGIINPSGGSTSYAQKFQGRVTMTRDTSTSTVYMELSSLRSEDTAVYYCARDTGGYAFDIWGQGTLVTVSS
# VL: DIQMTQSPSSVSASVGDRVTITCRASQGISSWLAWYQQKPGKAPKLLIYAASSLQSGVPSRFSGSGSGTDFTLTISSLQPEDFATYYCQQANSFPFTFGGGTKVEIK
# notes: IgG
# B21: BIIB-9-1281 (antibody, V domains shown)
# VH: QVQLQQWGAGLLKPSETLSLTCAVYGGSFSGYYWSWIRQPPGKGLEWIGEIDHSGSTNYNPSLKSRVTISVDTSKNQFSLKLSSVTAADTAVYYCARTTRSKYYGMDVWGQGTMVTVSS
# VL: DIQMTQSPSTLSASVGDRVTITCRASQSISSWLAWYQQKPGKAPKLLIYKASSLESGVPSRFSGSGSGTDFTLTISSLQPEDFATYYCQQAISLPITFGGGTKVEIK
# notes: IgG
# B22: BIIB-9-1283 (antibody, V domains shown)
# VH: QVQLVQSGAEVKKPGASVKVSCKASGYTFTSYYMVWVRQAPGQGLEWMGIINPSGGSTSYAQKFQGRVTMTRDTSTSTVYMELSSLRSEDTAVYYCARVPTYRYSYLAFDIWGQGTMVTVSS
# VL: DIQMTQSPSSVSASVGDRVTITCRASQGISSWLAWYQQKPGKAPKLLIYAASSLQSGVPSRFSGSGSGTDFTLTISSLQPEDFATYYCQQASSFPPTFGGGTKVEIK
# notes: IgG
# B23: BIIB-9-1279 (antibody, V domains shown)
# VH: QVQLVQSGAEVKKPGASVKVSCKASGYTFTSYYMHWVRQAPGQGLEWMGIINPSGGSTSYAQKFQGRVTMTRDTSTSTVYMELSSLRSEDTAVYYCARGPTDSSGYLDMDVWGKGTTVTVSS
# VL: DIQMTQSPSSVSASVGDRVTITCRASQGISSWLAWYQQKPGKAPKLLIYAASSLQSGVPSRFSGSGSGTDFTLTISSLQPEDFATYYCQQASSFPPTFGGGTKVEIK
# notes: IgG
# B24: BIIB-9-1287 (antibody, V domains shown)
# VH: QLQLQESGPGLVKPSETLSLTCTVSGGSISSSDYYWGWIRQPPGKGLEWIGSIYYSGSTYYNPSLKSRVTISVDTSKNQFSLKLSSVTAADTAVYYCARSPRHKVRGPNWFDPWGQGTLVTVSS
# VL: EIVLTQSPGTLSLSPGERATLSCRASQSVSSSYLAWYQQKPGQAPRLLIYGASSRATGIPDRFSGSGSGTDFTLTISRLEPEDFAVYYCQQYHLHPTFGGGTKVEIK
# notes: IgG
# Key:
# [1] = target: T1, free FIXa (activated Factor IX) (human, UniProt P00740 47-191; P00740 227-461); test: BLI; class meaning: paragraph 914
# T1 construct: BLI antigen bought from Haematologic Technologies (HCIXA-0050); also called factor IXa
# FIXa-SM (FIXa+EGR-CMK) = target: T2, FIXa-SM (FIXa+EGR-CMK) (human, UniProt P00740 47-191; P00740 227-461, EGR-CMK (L-Glu-Gly-Arg chloromethyl ketone) covalently bound to the active site); test: BLI; class meaning: paragraph 914
# T2 construct: BLI antigen bought from Haematologic Technologies (HCIXA-EGR); also called FIXa with substrate mimic
# [2] = target: T1, free FIXa (activated Factor IX); test: yeast display selection and BLI as in Examples 1 and 5
Binder,binding result [1],binding result (FIXa-SM (FIXa+EGR-CMK)),binding result [2]
B1,binds,binds,
B2,binds,binds,
B3,binds,binds,
B4,binds,binds,
B5,,,binds
B6,,,binds
B7,,,binds
B8,,,binds
B9,,,binds
B10,,,binds
B11,,,binds
B12,,,binds
B13,,,binds
B14,,,binds
B15,,,binds
B16,,,binds
B17,,,binds
B18,,,binds
B19,binds,binds,
B20,binds,binds,
B21,binds,binds,
B22,binds,binds,
B23,binds,binds,
B24,binds,binds,
